Series [1] has as its target Unphosphorylated human Protein kinase R (PKR), wild type (human) (UniProt P19525). The series can be described thus: AUC.
The series “AUC” deals with the molecule itself. Put plainly: AUC.

As a reminder, the Kd is the constant that tells how readily two partners part at equilibrium. High values mean a looser complex, low ones a tighter complex. “Unphosphorylated human Protein kinase R (PKR), wild type (from UniProt P19525 1-551) (enzyme)” registered a dissociation constant (Kd) in series [1] of 702 µM.

B1: PKR R107A (enzyme, human, UniProt P19525 1-551, looked up)
chain: MAGDLSAGFFMEELNTYRQKQGVVLKYQELPNSGPPHDRRFTFQVIIDGREFPEGEGRSKKEAKNAAAKLAVEILNKEKKAVSPLLLTTTNSSEGLSMGNYIGLINAIAQKKRLTVNYEQCASGVHGPEGFHYKCKMGQKEYSIGTGSTKQEAKQLAAKLAYLQILSEETSVKSDYLSSGSFATTCESQSNSLVTSTLASESSSEGDFSADTSEINSNSDSLNSSSLLMNGLRNNQRKAKRSLAPRFDLPDMKETKYTVDKRFGMDFKEIELIGSGGFGQVFKAKHRIDGKTYVIKRVKYNNEKAEREVKALAKLDHVNIVHYNGCWDGFDYDPETSDDSLESSDYDPENSKNSSRSKTKCLFIQMEFCDKGTLEQWIEKRRGEKLDKVLALELFEQITKGVDYIHSKKLIHRDLKPSNIFLVDTKQVKIGDFGLVTSLKNDGKRTRSKGTLRYMSPEQISSQDYGKEVDLYALGLILAELLHVCDTAFETSKFFTDLRDGIISDIFDKKEKTLLQKLLSKKPEDRPNTSEILRTLTVWKKSPEKNERHTC
As to B1, the dissociation constant Kd in “AUC” stood at 704 µM.

These data come from article PMC8153938 (ACS Omega, 2021).
